Data published in article PMC6557901, “Rif1 S-acylation mediates DNA double-strand break repair at the inner nuclear membrane”.

Target: T1, Rif1 NTD (100-1322) C466A/C473A (Saccharomyces cerevisiae, UniProt P29539 100-1322, C466A;C473A)
T1 sequence: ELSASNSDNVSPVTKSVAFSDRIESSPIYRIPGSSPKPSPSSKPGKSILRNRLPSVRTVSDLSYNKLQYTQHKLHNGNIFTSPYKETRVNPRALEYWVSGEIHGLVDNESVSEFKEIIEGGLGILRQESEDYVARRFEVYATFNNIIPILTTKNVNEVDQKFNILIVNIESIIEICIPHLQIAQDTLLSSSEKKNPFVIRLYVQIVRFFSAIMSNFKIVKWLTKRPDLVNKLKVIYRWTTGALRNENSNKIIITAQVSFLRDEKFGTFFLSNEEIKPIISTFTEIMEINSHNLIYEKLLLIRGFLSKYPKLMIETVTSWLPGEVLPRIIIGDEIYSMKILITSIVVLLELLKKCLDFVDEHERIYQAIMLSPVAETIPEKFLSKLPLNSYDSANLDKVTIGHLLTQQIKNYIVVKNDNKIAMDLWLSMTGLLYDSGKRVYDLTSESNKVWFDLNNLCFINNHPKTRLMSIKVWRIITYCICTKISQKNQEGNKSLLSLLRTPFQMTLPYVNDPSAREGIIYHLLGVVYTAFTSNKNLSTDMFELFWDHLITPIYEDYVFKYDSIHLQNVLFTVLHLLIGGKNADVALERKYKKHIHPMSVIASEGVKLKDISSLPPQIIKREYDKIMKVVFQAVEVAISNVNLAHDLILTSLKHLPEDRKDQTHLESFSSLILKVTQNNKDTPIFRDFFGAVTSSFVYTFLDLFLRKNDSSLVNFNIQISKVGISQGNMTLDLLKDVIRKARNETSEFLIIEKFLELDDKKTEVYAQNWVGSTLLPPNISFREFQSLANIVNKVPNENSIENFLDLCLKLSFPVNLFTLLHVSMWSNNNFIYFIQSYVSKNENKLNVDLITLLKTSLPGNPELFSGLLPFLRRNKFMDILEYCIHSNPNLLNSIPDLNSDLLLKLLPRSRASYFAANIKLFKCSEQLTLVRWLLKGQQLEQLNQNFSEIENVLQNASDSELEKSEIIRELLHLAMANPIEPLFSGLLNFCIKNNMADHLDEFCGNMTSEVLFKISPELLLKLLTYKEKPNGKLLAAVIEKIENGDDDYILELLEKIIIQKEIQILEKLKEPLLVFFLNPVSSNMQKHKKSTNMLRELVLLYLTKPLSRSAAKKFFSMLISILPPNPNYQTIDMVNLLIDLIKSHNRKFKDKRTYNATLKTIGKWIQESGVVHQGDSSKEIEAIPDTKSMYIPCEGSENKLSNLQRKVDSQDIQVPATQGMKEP
Test: EMSA; protein 10-160 nM, DNA 1 nM; apparent affinity similar to wild-type; 20 mM Tris-HCl pH 8.0, 100 mM NaCl, 2.5 mM MgCl2, 10 mM CaCl2, 0.1 mg/ml BSA, 1 mM TCEP, 30 min at 20 °C; 1.2% agarose gel, 0.5x TBE, 4 °C
Settings: protein: recombinant; tags: N-terminal Strep(II); label: 5'-32P on EMSA1; blunt

B1: 30 bp dsDNA (EMSA1/EMSA2) (dsDNA)
DNA 1: TAGCAAGGCACTGGTAGAATTCGGCAGCGT
DNA 2: ACGCTGCCGAATTCTACCAGTGCCTTGCTA
binding result: binds
